In US20130323282A1:

Legend:
[1] = molecular target: CD81 MBP-LEL113-201 (maltose-binding protein linked to the CD81 large extracellular loop, residues 113 to 201), dimeric form (UniProt P60033); test: SPR; 1:1 model for dimer/trimer, two-state model for monomer
[2] = molecular target: CD81 MBP-LEL113-201 (maltose-binding protein linked to the CD81 large extracellular loop, residues 113 to 201), dimeric form (UniProt P60033); test: SPR; 1:1 Langmuir model

UniProt P60033, sequence (P60033 113-201 limits assumed): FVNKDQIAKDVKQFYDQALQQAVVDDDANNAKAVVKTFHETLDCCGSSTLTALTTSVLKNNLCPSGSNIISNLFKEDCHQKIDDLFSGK

Substance: H77c WT E2661-his, dimer (from UniProt P27958 384-661) (ligand)
- fold higher affinity than the monomeric protein [1]: 10 fold

Substance: H77c WT E2661-his, trimer (putative) (from UniProt P27958 384-661) (ligand)
- fold higher affinity than the monomeric protein [1]: 10 fold

Substance: H77c ΔHVR1+2+3 E2661-his, dimer (from UniProt P27958 384-661) (ligand)
- fold higher affinity than the WT dimer [2]: 2 fold
- fold higher affinity than the monomeric protein [1]: 10 fold

Substance: H77c ΔHVR1+2+3 E2661-his, trimer (putative) (from UniProt P27958 384-661) (ligand)
- fold higher affinity than the monomeric protein [1]: 10 fold
